US12467929

Key:
[1] = biological target: recombinant UBE3A protein (Homo sapiens (Human)) (UniProt Q05086); experiment: 2-step Simoa; capture GTX; UBE3A 7.81 ng/ml
[2] = biological target: recombinant UBE3A protein (Homo sapiens (Human)) (UniProt Q05086); experiment: 2-step Simoa; capture GTX; UBE3A 0.488 ng/ml
[3] = biological target: recombinant UBE3A protein (Homo sapiens (Human)) (UniProt Q05086); experiment: Simoa; capture GTX; SBG 150 pm; UBE3A 0.800 ng/ml
[4] = biological target: recombinant UBE3A protein (Homo sapiens (Human)) (UniProt Q05086); experiment: 3-step Simoa, 120 min bead step; capture GTX; UBE3A 0.160 ng/ml
[5] = biological target: recombinant UBE3A protein (Homo sapiens (Human)) (UniProt Q05086); experiment: Simoa; capture GTX; SBG 100 pm; UBE3A 0.160 ng/ml
[6] = biological target: recombinant UBE3A protein (Homo sapiens (Human)) (UniProt Q05086); experiment: Simoa head-to-head, Table 11; capture GTX; UBE3A 100 ng/ml
[7] = biological target: recombinant UBE3A protein (Homo sapiens (Human)) (UniProt Q05086); experiment: Simoa; capture GTX; 3E5 0.2 ug/ml; UBE3A 0.800 ng/ml
[8] = biological target: recombinant UBE3A protein (Homo sapiens (Human)) (UniProt Q05086); experiment: Simoa; capture GTX + helper beads; 3E5 0.2 ug/ml; UBE3A 0.00128 ng/ml
[9] = biological target: recombinant UBE3A protein (Homo sapiens (Human)) (UniProt Q05086); experiment: Simoa; capture GTX + helper beads; 3E5 0.4 ug/ml; UBE3A 0.800 ng/ml
[10] = biological target: recombinant UBE3A protein (Homo sapiens (Human)) (UniProt Q05086); experiment: Simoa; capture GTX + helper beads; 3E5 0.4 ug/ml; UBE3A 0.0320 ng/ml
[11] = biological target: recombinant UBE3A protein (Homo sapiens (Human)) (UniProt Q05086); experiment: Simoa; capture GTX; 3E5 0.4 ug/ml; UBE3A 0.00128 ng/ml
[12] = biological target: recombinant UBE3A protein (Homo sapiens (Human)) (UniProt Q05086); experiment: Simoa; capture GTX; SBG 150 pm; UBE3A 4.00 ng/ml
[13] = biological target: recombinant UBE3A protein (Homo sapiens (Human)) (UniProt Q05086); experiment: Simoa; capture GTX, no helper beads; 3E5 0.2 ug/ml; UBE3A 0.00128 ng/ml
[14] = biological target: recombinant UBE3A protein (Homo sapiens (Human)) (UniProt Q05086); experiment: Simoa; capture GTX; SBG 100 pm; UBE3A 0.800 ng/ml
[15] = biological target: recombinant UBE3A protein (Homo sapiens (Human)) (UniProt Q05086); experiment: Simoa; capture GTX; 3E5 0.2 ug/ml; UBE3A 0.00640 ng/ml
[16] = biological target: recombinant UBE3A protein (Homo sapiens (Human)) (UniProt Q05086); experiment: Simoa; capture GTX; 3E5 0.4 ug/ml; UBE3A 0.800 ng/ml
[17] = biological target: recombinant UBE3A protein (Homo sapiens (Human)) (UniProt Q05086); experiment: Simoa; capture GTX + helper beads; 3E5 0.4 ug/ml; UBE3A 0.00640 ng/ml
[18] = biological target: recombinant UBE3A protein (Homo sapiens (Human)) (UniProt Q05086); experiment: Simoa head-to-head, Table 11; capture GTX; UBE3A 500 ng/ml
[19] = biological target: recombinant UBE3A protein (Homo sapiens (Human)) (UniProt Q05086); experiment: Simoa; capture GTX + helper beads; 3E5 0.4 ug/ml; UBE3A 4.00 ng/ml
[20] = biological target: recombinant UBE3A protein (Homo sapiens (Human)) (UniProt Q05086); experiment: Simoa head-to-head, Table 11; capture GTX; UBE3A 20.0 ng/ml

Sequence of UniProt Q05086 (Q05086 whole entry): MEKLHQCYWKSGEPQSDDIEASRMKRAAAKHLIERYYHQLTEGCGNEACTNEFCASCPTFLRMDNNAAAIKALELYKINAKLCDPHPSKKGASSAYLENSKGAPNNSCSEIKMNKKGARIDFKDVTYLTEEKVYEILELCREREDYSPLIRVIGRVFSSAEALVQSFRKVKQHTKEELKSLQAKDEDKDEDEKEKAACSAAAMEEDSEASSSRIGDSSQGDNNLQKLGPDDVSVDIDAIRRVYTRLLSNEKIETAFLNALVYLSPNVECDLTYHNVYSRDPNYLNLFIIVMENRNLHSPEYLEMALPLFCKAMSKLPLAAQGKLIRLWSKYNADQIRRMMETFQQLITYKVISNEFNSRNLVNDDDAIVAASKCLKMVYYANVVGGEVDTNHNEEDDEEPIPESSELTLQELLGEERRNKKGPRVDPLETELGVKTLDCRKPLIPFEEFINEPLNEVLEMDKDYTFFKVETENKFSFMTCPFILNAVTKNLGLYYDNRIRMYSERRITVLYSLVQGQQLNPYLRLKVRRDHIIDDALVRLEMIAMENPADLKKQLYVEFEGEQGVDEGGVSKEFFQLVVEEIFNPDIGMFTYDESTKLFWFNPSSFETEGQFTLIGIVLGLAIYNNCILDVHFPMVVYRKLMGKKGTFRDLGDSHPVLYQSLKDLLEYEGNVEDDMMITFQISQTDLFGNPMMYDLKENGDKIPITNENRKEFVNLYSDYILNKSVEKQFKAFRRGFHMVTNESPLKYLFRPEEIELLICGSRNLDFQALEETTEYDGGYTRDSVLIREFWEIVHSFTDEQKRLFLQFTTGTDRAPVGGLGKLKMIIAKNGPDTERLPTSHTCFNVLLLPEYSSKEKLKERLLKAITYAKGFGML

NB500-240 (Novus) (antibody) showed an AEB1 [1] of 0.058, an AEB2 [1] of 0.0481 and an Ave AEB [1] of 0.053. For the same substance, the Signal to Background [1] was 16.2, the AEB1 [2] was 0.0073 and the AEB2 [2] was 0.0069. For the same substance, the Ave AEB [2] was 0.0071 and the Signal to Background [2] was 2.16.

“anti-UBE3A antibody 3E5 (SAB1404508-100 ug, Millipore-Sigma)” was tested, and the AEB1 [3] was 0.271, the AEB2 [3] was 0.285 and the AEB3 [3] was 0.279. For the same substance, the Average AEB [3] was 0.278, the Signal to Background [3] was 21 and the AEB1 [4] was 0.0398. The AEB2 [4] was 0.0389, the Ave AEB [4] was 0.0393 and the Signal to Background [4] was 23.1. The AEB1 [5] was 0.0582, the AEB2 [5] was 0.0586 and the AEB3 [5] was 0.0574. The Average AEB [5] was 0.0581, the Signal to Background [5] was 6.93 and the AEB1 [6] was 3.35. It also gave an AEB2 [6] of 3.51, an Ave AEB [6] of 3.43 and a Signal to Background [6] of 419. For the same substance, the AEB1 [7] was 0.355, the AEB2 [7] was 0.378 and the AEB3 [7] was 0.358. It also gave an Average AEB [7] of 0.364, a Signal to Background [7] of 9.26 and an AEB1 [8] of 0.0127. It also gave an AEB2 [8] of 0.0115, an Average AEB [8] of 0.0121 and a Signal to Background [8] of 1.25. The AEB1 [9] was 0.341, the AEB2 [9] was 0.333 and the Average AEB [9] was 0.337. The Signal to Background [9] was 17.2, the AEB1 [10] was 0.037 and the AEB2 [10] was 0.0369. It also gave an Average AEB [10] of 0.037, a Signal to Background [10] of 1.89 and an AEB1 [11] of 0.0769. The AEB2 [11] was 0.072, the AEB3 [11] was 0.0724 and the Average AEB [11] was 0.0738. It also gave a Signal to Background [11] of 1.18, an AEB1 [12] of 0.907 and an AEB2 [12] of 0.938. The AEB3 [12] was 0.927, the Average AEB [12] was 0.924 and the Signal to Background [12] was 69.7. The AEB1 [13] was 0.0099, the AEB2 [13] was 0.0139 and the Average AEB [13] was 0.0119. For the same substance, the Signal to Background [13] was 1.23, the AEB1 [14] was 0.21 and the AEB2 [14] was 0.214. It also gave an AEB3 [14] of 0.211, an Average AEB [14] of 0.212 and a Signal to Background [14] of 25.3. The AEB1 [15] was 0.0421, the AEB2 [15] was 0.0466 and the AEB3 [15] was 0.0433. The Average AEB [15] was 0.044, the Signal to Background [15] was 1.12 and the AEB1 [16] was 0.509. For the same substance, the AEB2 [16] was 0.48, the AEB3 [16] was 0.478 and the Average AEB [16] was 0.489. It also gave a Signal to Background [16] of 7.81, an AEB1 [17] of 0.0326 and an AEB2 [17] of 0.0263. For the same substance, the Average AEB [17] was 0.0294, the Signal to Background [17] was 1.51 and the AEB1 [18] was 9.97. The AEB2 [18] was 10.3, the Ave AEB [18] was 10.1 and the Signal to Background [18] was 1240. For the same substance, the AEB1 [19] was 1.16, the AEB2 [19] was 1.12 and the Average AEB [19] was 1.14. The Signal to Background [19] was 58.5, the AEB1 [20] was 0.78 and the AEB2 [20] was 0.821. It also gave an Ave AEB [20] of 0.8 and a Signal to Background [20] of 97.8.
